Laboratory results published in paper PMC6197697, “Rice transcription factor OsMADS25 modulates root growth and confers salinity tolerance via the ABA–mediated regulatory pathway and ROS scavenging”.

B1: OsP5CR P1 probe (dsDNA)
DNA 1: CAGAGGGCATTCTCCCTAATAAGGCAGATACCTCCG
DNA 2: CGGAGGTATCTGCCTTATTAGGGAGAATGCCCTCTG
B2: OsP5CR P2 probe (dsDNA)
DNA 1: CGACGAATCCATTCATATATTTGTAGGGGCAGCGG
DNA 2: CCGCTGCCCCTACAAATATATGAATGGATTCGTCG

Key:
[1] = target: T1, His-OsMADS25 (Oryza sativa, UniProt Q84NC5 1-227); test: EMSA; 5 mM Mg2+; 10 mM Tris pH 7.5, 50 mM KCl, 1 mM DTT, 2.5% glycerol, 5 mM MgCl2, 0.05% NP-40, 50 ng/ul poly(dI-dC), 30 ng protein, 400 fmol probe in 20 ul, 25 C 20 min (final values calculated from stocks); conditions: protein: recombinant; tags: His (pET32a fusion); chain copies: 2; label: biotin 3' end; blunt
[2] = target: T1, His-OsMADS25; test: EMSA; 5 mM Mg2+; competition stated to confirm specificity; 10 mM Tris pH 7.5, 50 mM KCl, 1 mM DTT, 2.5% glycerol, 5 mM MgCl2, 0.05% NP-40, 50 ng/ul poly(dI-dC), 30 ng protein, 400 fmol probe in 20 ul, 25 C 20 min (final values calculated from stocks); conditions: protein: recombinant; tags: His (pET32a fusion); chain copies: 2; label: biotin 3' end; blunt

T1 sequence (Q84NC5 whole entry, the tested form may be a part): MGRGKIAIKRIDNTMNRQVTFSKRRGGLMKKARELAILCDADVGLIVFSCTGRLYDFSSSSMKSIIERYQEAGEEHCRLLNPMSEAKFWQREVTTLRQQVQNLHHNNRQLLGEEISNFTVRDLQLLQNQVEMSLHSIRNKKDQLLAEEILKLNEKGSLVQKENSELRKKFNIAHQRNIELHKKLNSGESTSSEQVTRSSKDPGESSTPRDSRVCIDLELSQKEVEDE

| Binder | binding result [1] | binding result [2] |
| --- | --- | --- |
| B1 | no binding |  |
| B2 |  | binds |
